# B1: 抗インターロイキン6レセプター(IL−6R)抗体 (antibody, V domains shown)
# VH: QVQLQESGPGLVRPSQTLSLTCTVSGYSITSDHAWSWVRQPPGRGLEWIGYISYSGITTYNPSLKSRVTMLRDTSKNQFSLRLSSVTAADTAVYYCARSLARTTAMDYWGQGSLVTVSS
# VL: DIQMTQSPSSLSASVGDRVTITCRASQDISSYLNWYQQKPGKAPKLLIYYTSRLHSGVPSRFSGSGSGTDFTFTISSLQPEDIATYYCQQGNTLPYTFGQGTKVEIK
# Key:
# [1] = target: ヒトFcγRIIIaを固定化した担体(分離剤)を詰めたカラム(FcR9_Fカラム、WO2018/150973号の実施例5に記載) (human); test: FcγRIIIa affinity chromatography (FcR9_F column), area share of the strongly binding peak 3; antibody from bioreactor batch culture in BalanCD CHO Growth A without Mn, day 9
# [2] = target: ヒトFcγRIIIaを固定化した担体(分離剤)を詰めたカラム(FcR9_Fカラム、WO2018/150973号の実施例5に記載) (human); test: FcγRIIIa affinity chromatography (FcR9_F column), area share of the strongly binding peak 3; antibody from bioreactor batch culture in BalanCD CHO Growth A with 5 µM Mn, day 10
# [3] = target: ヒトFcγRIIIaを固定化した担体(分離剤)を詰めたカラム(FcR9_Fカラム、WO2018/150973号の実施例5に記載) (human); test: FcγRIIIa affinity chromatography (FcR9_F column), area share of the strongly binding peak 3; antibody from bioreactor batch culture in EX-CELL Advanced CHO Fed-batch Medium without Mn, day 10
# [4] = target: ヒトFcγRIIIaを固定化した担体(分離剤)を詰めたカラム(FcR9_Fカラム、WO2018/150973号の実施例5に記載) (human); test: FcγRIIIa affinity chromatography (FcR9_F column), area share of the strongly binding peak 3; antibody from bioreactor batch culture in EX-CELL Advanced CHO Fed-batch Medium with 1 µM Mn, day 10
# [5] = target: ヒトFcγRIIIaを固定化した担体(分離剤)を詰めたカラム(FcR9_Fカラム、WO2018/150973号の実施例5に記載) (human); test: FcγRIIIa affinity chromatography (FcR9_F column), area share of the strongly binding peak 3; antibody from bioreactor batch culture in EX-CELL Advanced CHO Fed-batch Medium with 5 µM Mn, day 10
# [6] = target: ヒトFcγRIIIaを固定化した担体(分離剤)を詰めたカラム(FcR9_Fカラム、WO2018/150973号の実施例5に記載) (human); test: FcγRIIIa affinity chromatography (FcR9_F column), area share of the strongly binding peak 3; antibody from bioreactor batch culture in EX-CELL Advanced CHO Fed-batch Medium with 10 µM Mn, day 10
binder,measurement,setting,value
B1,FcR9_Fカラムとの結合力が強いピーク(ピーク3)の割合,[1],27.9%
same,FcR9_Fカラムとの結合力が強いピーク(ピーク3)の割合,[2],34.7%
same,FcR9_Fカラムとの結合力が強いピーク(ピーク3)の割合,[3],35.9%
same,FcR9_Fカラムとの結合力が強いピーク(ピーク3)の割合,[4],36.5%
same,FcR9_Fカラムとの結合力が強いピーク(ピーク3)の割合,[5],38.4%
same,FcR9_Fカラムとの結合力が強いピーク(ピーク3)の割合,[6],41%

# Reference: patent publication JP2020103280A
